Test results published in the supplement of paper PMC10065799, “High-throughput profiling of sequence recognition by tyrosine kinases and SH2 domains using bacterial peptide display” (eLife, 2023).

Experiments:
MERTK = MERTK (UniProt Q12866); assay: phosphorylation enrichment, bacterial display (enrichment ratio); higher = better substrate or ligand; peptides without Tyr show the background
Fes = Fes (UniProt P07332); assay: as above
Hck = Hck (UniProt P08631); assay: as above
FGFR3 = FGFR3 (UniProt P22607); assay: as above
c-Abl (mouse) = assay: as above
Fyn = Fyn (UniProt P06241); assay: as above
Sequence of Fyn (P06241 whole entry, looked up): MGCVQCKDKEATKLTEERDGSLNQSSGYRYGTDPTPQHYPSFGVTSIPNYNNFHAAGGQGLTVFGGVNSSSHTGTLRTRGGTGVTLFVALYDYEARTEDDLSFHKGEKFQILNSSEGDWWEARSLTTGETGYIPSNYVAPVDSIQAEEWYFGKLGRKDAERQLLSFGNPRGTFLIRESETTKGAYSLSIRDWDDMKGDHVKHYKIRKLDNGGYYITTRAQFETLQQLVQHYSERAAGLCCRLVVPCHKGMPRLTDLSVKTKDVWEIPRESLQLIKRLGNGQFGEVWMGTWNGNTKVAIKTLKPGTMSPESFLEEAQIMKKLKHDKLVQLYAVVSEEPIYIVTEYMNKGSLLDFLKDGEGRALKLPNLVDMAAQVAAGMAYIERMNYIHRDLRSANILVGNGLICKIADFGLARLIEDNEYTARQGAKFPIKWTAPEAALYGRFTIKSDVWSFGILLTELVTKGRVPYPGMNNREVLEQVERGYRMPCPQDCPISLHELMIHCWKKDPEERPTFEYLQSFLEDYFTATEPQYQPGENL

EPHB2 = EPHB2 (UniProt P29323); assay: as above
Sequence of EPHB2 (P29323 whole entry, looked up): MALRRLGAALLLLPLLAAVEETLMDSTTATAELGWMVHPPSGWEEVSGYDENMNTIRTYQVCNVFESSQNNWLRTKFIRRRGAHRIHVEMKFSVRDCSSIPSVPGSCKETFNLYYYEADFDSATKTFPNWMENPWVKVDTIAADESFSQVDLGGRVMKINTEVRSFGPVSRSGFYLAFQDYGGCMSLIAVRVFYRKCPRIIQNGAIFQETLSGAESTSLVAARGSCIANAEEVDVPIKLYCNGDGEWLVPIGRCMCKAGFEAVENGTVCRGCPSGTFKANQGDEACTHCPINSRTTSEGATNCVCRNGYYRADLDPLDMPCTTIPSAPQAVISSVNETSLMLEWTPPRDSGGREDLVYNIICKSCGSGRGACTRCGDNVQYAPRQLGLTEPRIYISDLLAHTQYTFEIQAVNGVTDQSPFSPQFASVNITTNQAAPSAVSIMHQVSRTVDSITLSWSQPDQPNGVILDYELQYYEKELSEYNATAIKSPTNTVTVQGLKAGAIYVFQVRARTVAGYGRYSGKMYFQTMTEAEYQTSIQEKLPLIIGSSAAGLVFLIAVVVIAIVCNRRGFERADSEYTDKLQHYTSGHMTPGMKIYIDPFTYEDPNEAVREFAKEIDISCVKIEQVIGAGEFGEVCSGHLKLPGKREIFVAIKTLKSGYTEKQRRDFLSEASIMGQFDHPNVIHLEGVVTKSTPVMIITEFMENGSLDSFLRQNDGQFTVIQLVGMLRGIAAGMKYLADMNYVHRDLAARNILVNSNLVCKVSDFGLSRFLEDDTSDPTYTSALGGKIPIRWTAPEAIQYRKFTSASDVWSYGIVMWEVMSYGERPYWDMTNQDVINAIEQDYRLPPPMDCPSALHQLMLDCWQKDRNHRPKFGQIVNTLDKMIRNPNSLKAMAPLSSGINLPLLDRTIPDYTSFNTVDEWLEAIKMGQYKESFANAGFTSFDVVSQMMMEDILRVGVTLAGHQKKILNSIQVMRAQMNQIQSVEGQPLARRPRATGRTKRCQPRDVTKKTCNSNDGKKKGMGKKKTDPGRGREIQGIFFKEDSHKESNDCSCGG

FGFR1 = FGFR1 (UniProt P11362); assay: as above
AncSZ = assay: as above
Jak2 = Jak2 (UniProt O60674); assay: as above
c-Src = assay: as above
EPHB1 = EPHB1 (UniProt P54762); assay: as above
Sequence of EPHB1 (P54762 whole entry, looked up): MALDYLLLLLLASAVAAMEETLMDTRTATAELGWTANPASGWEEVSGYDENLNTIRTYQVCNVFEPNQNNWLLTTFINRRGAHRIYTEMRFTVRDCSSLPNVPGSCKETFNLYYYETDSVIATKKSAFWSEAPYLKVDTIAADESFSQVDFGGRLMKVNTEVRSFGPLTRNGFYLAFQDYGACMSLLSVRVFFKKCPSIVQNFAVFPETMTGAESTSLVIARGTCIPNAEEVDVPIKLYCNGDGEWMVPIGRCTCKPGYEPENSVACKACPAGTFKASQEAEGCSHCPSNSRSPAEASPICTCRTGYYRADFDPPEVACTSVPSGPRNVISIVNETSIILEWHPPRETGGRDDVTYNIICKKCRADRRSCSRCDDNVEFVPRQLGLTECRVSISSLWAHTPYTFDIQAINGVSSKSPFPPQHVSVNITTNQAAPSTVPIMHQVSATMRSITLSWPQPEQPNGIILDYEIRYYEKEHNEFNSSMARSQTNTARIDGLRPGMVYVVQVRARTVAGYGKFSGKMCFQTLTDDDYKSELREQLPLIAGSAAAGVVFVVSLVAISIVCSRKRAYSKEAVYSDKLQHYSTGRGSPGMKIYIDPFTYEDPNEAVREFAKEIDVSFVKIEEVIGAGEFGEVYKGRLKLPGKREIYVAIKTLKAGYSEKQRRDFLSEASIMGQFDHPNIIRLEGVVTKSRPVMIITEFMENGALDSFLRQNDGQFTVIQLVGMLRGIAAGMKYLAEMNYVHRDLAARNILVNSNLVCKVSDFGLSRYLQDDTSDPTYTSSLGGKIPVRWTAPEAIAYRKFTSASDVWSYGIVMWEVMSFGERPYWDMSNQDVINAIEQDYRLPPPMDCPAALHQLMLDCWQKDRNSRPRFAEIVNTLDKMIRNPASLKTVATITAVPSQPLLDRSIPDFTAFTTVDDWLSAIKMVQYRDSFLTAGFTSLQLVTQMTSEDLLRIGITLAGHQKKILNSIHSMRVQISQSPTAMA

Fer (mouse) = assay: as above
SHP2-C SH2 = assay: SH2 binding enrichment of the phosphorylated peptide, bacterial display (enrichment ratio); higher = better substrate or ligand; peptides without Tyr show the background
c-Src SH2 = assay: as above
Grb2 SH2 = Grb2 SH2 (UniProt P62993); assay: as above
Sequence of Grb2 SH2 (P62993 whole entry, looked up, the tested form may be a part): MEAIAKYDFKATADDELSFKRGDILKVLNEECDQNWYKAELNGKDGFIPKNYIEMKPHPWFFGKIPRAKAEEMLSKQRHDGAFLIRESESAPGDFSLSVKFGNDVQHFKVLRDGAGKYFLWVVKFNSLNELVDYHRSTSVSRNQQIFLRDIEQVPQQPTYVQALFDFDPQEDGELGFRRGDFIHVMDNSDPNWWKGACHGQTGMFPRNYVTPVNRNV
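Throughout, for SH2 binding enrichment of the phosphorylated peptide, bacterial display: peptide library displayed on the E. coli surface as eCPX fusions, selected cells deep-sequenced, score is each peptide's frequency after selection divided by its frequency in the input.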
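Throughout, for phosphorylation enrichment, bacterial display: 11-residue human phosphosite peptides and single-mutation variants displayed on the E. coli surface, counted by deep sequencing, each peptide's frequency after selection divided by its frequency in the unselected input library; frequency after pTyr selection over input frequency; kinase dosed for 20-30% of maximal phosphorylation in three min.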

Sequence of MERTK (Q12866 whole entry, looked up): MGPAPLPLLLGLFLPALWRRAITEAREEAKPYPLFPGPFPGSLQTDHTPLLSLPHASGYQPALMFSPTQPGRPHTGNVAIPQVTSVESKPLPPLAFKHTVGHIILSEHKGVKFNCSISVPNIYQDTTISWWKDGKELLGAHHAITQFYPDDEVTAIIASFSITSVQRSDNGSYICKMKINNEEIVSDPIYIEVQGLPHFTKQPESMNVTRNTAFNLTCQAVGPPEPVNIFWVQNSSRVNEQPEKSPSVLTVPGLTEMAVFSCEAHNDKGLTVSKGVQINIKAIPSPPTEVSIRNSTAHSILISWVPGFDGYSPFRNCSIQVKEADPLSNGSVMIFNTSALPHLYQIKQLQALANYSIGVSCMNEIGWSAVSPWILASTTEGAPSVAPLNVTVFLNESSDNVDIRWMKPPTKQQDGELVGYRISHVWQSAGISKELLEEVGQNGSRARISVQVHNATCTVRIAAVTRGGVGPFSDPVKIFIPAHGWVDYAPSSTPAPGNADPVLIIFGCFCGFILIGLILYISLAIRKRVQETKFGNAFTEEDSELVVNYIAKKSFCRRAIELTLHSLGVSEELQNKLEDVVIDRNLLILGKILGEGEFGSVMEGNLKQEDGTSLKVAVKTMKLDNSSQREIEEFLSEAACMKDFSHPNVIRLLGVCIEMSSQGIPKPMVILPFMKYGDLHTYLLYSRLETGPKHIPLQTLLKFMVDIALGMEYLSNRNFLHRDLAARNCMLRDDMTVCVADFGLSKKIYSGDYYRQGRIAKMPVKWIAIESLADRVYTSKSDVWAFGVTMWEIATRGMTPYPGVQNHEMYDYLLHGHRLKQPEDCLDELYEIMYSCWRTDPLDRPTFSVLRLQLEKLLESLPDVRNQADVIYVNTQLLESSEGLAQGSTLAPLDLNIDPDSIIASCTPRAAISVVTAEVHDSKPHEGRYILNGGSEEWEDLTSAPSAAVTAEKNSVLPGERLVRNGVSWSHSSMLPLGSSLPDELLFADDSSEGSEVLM
Sequence of Hck (P08631 whole entry, looked up): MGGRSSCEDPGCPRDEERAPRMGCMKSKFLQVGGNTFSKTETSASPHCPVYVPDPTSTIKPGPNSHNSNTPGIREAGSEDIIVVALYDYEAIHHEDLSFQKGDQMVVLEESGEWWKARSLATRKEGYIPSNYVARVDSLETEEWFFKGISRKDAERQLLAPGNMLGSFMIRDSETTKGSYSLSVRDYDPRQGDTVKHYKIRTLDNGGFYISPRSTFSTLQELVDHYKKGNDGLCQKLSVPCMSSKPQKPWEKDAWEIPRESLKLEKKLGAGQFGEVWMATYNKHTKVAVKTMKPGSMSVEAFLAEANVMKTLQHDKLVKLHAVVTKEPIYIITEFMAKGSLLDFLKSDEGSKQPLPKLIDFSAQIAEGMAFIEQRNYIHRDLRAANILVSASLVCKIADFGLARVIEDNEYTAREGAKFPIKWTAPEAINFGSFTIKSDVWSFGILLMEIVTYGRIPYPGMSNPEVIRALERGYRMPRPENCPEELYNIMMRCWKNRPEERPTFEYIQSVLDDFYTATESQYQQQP

Row | Sequence | phosphorylation enrichment (MERTK) | phosphorylation enrichment (Fes) | phosphorylation enrichment (Hck) | phosphorylation enrichment (FGFR3) | phosphorylation enrichment (c-Abl (mouse)) | phosphorylation enrichment (Fyn) | phosphorylation enrichment (EPHB2) | phosphorylation enrichment (FGFR1) | phosphorylation enrichment (AncSZ) | phosphorylation enrichment (Jak2) | phosphorylation enrichment (c-Src) | phosphorylation enrichment (EPHB1) | phosphorylation enrichment (Fer (mouse)) | SH2 binding enrichment (SHP2-C SH2) | SH2 binding enrichment (c-Src SH2) | SH2 binding enrichment (Grb2 SH2)
1 | TLNHQYDYTFD [CSNK1A1_Y292] | 0.453 | 0.964 | 0.536 | 0.824 | 0.565 | 0.519 | 0.706 | 0.85 | 1.05 | 0.783 | 1.27 | 0.512 | 0.432 | 0.691 | 9.88 | 0.779
2 | TLRETYGEMAD [ALB_Y108] | 0.454 | 1.2 | 0.555 | 0.836 | 0.885 | 0.627 | 0.559 | 0.519 | 0.999 | 0.982 | 0.702 | 0.54 | 0.446 | 0.579 | 0.91 | 1.11
3 | TMKSHYMELFD [BBS2_Y644_R643H_YF] | 0.893 | 0.966 | 0.601 | 0.72 | 0.572 | 0.51 | 0.582 | 0.708 | 1.1 | 0.772 | 0.431 | 0.764 | 0.547 | 1.48 | 7.06 | 0.824
4 | TNEYEYDELIV [TGM1_Y136_D132N] | 0.525 | 1.23 | 0.769 | 0.925 | 0.962 | 0.952 | 0.975 | 0.809 | 1.45 | 1.29 | 0.981 | 0.814 | 0.593 | 0.854 | 0.84 | 0.798
5 | TPGPNYRPGFN [USH2A_Y463_YF] | 0.87 | 0.716 | 0.586 | 0.646 | 0.576 | 0.536 | 0.436 | 0.647 | 0.707 | 0.675 | 0.452 | 0.531 | 0.498 | 0.505 | 0.416 | 0.776
6 | TQTPPYVKKHR [LARP1B_Y457_P462R] | 0.541 | 1.23 | 0.649 | 1.22 | 1.18 | 0.531 | 0.545 | 0.683 | 0.774 | 1.04 | 0.624 | 0.575 | 0.684 | 0.956 | 0.954 | 1.18
7 | TRTDAYAVSSF | 0.388 | 0.657 | 0.357 | 0.534 | 0.645 | 0.419 | 0.464 | 0.567 | 0.78 | 1.08 | 0.443 | 0.383 | 0.405 | 0.525 | 0.837 | 0.729
8 | TTPGPYRSIYF [MPG_Y71] | 0.422 | 1 | 0.662 | 0.515 | 0.547 | 0.641 | 0.278 | 0.44 | 0.595 | 0.433 | 1.27 | 0.268 | 0.54 | 6.08 | 2.11 | 1.48
9 | TVVGLYQKSSL [MYH7_Y609] | 0.627 | 0.988 | 0.685 | 0.75 | 0.793 | 0.55 | 0.638 | 0.483 | 0.973 | 0.849 | 0.483 | 0.567 | 0.675 | 0.67 | 0.619 | 0.872
10 | TWSSSYRSDRL [CRYBB1_Y131] | 0.448 | 1.07 | 0.419 | 0.389 | 0.593 | 0.456 | 0.608 | 0.398 | 0.682 | 0.621 | 0.451 | 0.441 | 0.477 | 0.722 | 0.473 | 0.997
11 | VATSWYRSPEL [CDKL5_Y177_R175S] | 0.412 | 0.656 | 0.469 | 0.545 | 0.427 | 0.466 | 0.435 | 0.553 | 0.768 | 0.548 | 0.344 | 0.417 | 0.409 | 0.77 | 0.549 | 0.827
12 | VDGSLYKTHPQ [HK1_Y417] | 0.378 | 0.556 | 0.365 | 0.419 | 0.425 | 0.44 | 0.389 | 0.338 | 0.472 | 0.409 | 0.385 | 0.436 | 0.421 | 0.596 | 0.465 | 0.765
13 | VDLSKCITTIA [FAS_Y232_Y232C] | 0.364 | 1.01 | 0.431 | 0.641 | 0.681 | 0.402 | 0.533 | 0.461 | 0.975 | 0.697 | 0.308 | 0.626 | 0.413 | 0.529 | 0.374 | 0.742
14 | VDTFWYKFLKR [EPM2A_Y86] | 0.432 | 1.18 | 0.467 | 0.716 | 0.78 | 0.406 | 0.629 | 0.553 | 1.21 | 1.05 | 0.371 | 0.657 | 0.525 | 1.04 | 0.602 | 0.957
15 | VEGISYDFIPT [CBS_Y308_G307S] | 2.96 | 0.982 | 1.9 | 0.941 | 0.754 | 0.529 | 0.568 | 0.564 | 1.28 | 0.984 | 0.596 | 0.578 | 0.96 | 0.633 | 2.11 | 0.654
16 | VFLGAYDCFLP [SLC22A5_Y486_R488C_YF] | 5.67 | 1.28 | 3.27 | 0.757 | 0.953 | 5.7 | 4.47 | 0.631 | 1.6 | 1.17 | 4.75 | 2.6 | 4.68 | 0.749 | 0.951 | 0.947
17 | VGSEDYGRDLT [SPTAN1_Y1792] | 0.456 | 1.44 | 0.592 | 1.04 | 1.04 | 0.588 | 0.587 | 0.564 | 1.1 | 1.24 | 0.513 | 0.626 | 0.621 | 0.571 | 0.369 | 0.63

Row | Sequence | phosphorylation enrichment (MERTK) | phosphorylation enrichment (Fes) | phosphorylation enrichment (Hck) | phosphorylation enrichment (FGFR3) | phosphorylation enrichment (c-Abl (mouse)) | phosphorylation enrichment (Fyn) | phosphorylation enrichment (EPHB2) | phosphorylation enrichment (FGFR1) | phosphorylation enrichment (AncSZ) | phosphorylation enrichment (Jak2) | phosphorylation enrichment (c-Src) | phosphorylation enrichment (EPHB1) | phosphorylation enrichment (Fer (mouse)) | SH2 binding enrichment (SHP2-C SH2) | SH2 binding enrichment (c-Src SH2) | SH2 binding enrichment (Grb2 SH2)
18 | VGTKWYMAPEV [ACVRL1_Y375_R374W] | 2.9 | 0.764 | 0.458 | 0.747 | 0.726 | 0.364 | 1.93 | 0.827 | 0.899 | 0.963 | 0.416 | 1.78 | 0.374 | 0.674 | 0.737 | 0.956
19 | VKANTYEKYWP [GATM_Y100] | 0.976 | 0.71 | 1.01 | 0.471 | 0.492 | 1.32 | 0.825 | 0.454 | 0.785 | 0.728 | 2.02 | 0.59 | 0.506 | 0.888 | 1.02 | 1.12
20 | VLSIDYFFPPQ [AR_Y552_P549S_YF] | 0.719 | 1.12 | 0.572 | 10.5 | 0.784 | 0.497 | 0.843 | 12.7 | 5.83 | 1.58 | 0.827 | 1.08 | 0.516 | 0.998 | 0.852 | 1.46
21 | VLVSQYEKLNA [AMZ2_Y26] | 0.434 | 0.732 | 0.467 | 0.548 | 0.578 | 0.438 | 0.341 | 0.362 | 0.619 | 0.638 | 0.389 | 0.524 | 0.417 | 0.632 | 2.71 | 0.915
22 | VNFGAYINDFK [GLB1_Y488_YF] | 0.352 | 0.997 | 0.441 | 0.621 | 0.558 | 0.498 | 0.568 | 0.459 | 0.909 | 0.83 | 0.369 | 0.545 | 0.393 | 0.551 | 0.625 | 1.74
23 | VNLVLHLSIAK [FBXO15_Y496_Y496H] | 0.391 | 1.36 | 0.588 | 0.85 | 0.88 | 0.492 | 0.609 | 0.476 | 1.15 | 1.36 | 0.446 | 0.583 | 0.799 | 0.511 | 0.351 | 0.652
24 | VQSASYLNDCL [MCM3AP_Y864_A867D] | 0.447 | 0.97 | 0.502 | 0.712 | 0.693 | 0.448 | 0.602 | 0.757 | 0.788 | 0.798 | 0.422 | 0.536 | 0.487 | 0.875 | 0.572 | 2.03
25 | VQVAYYTVMMN [SPATA17_Y84_M86V] | 4.41 | 1.71 | 1.69 | 4.41 | 1.01 | 1.7 | 1.47 | 5.77 | 1.79 | 3.06 | 2.03 | 2.88 | 1.97 | 0.952 | 1.93 | 1.63
26 | VRFVDYVLFRS [FAM189B_Y361_S358F] | 0.461 | 1.1 | 0.499 | 1.65 | 0.764 | 0.542 | 0.919 | 2.27 | 1 | 1.01 | 0.477 | 2.13 | 0.458 | 1.77 | 1.44 | 2.04
27 | VRQQVYKKVEE [HADHA_Y283] | 0.346 | 0.716 | 0.387 | 0.536 | 0.446 | 0.44 | 0.411 | 0.344 | 0.617 | 0.639 | 0.397 | 0.378 | 0.331 | 0.513 | 0.427 | 0.736
28 | VRRRSYSAGNA [KANK1_Y324_K321R] | 0.509 | 0.49 | 0.516 | 0.742 | 0.613 | 0.504 | 0.603 | 0.549 | 0.567 | 0.471 | 0.58 | 0.404 | 0.664 | 0.557 | 0.488 | 0.706
29 | VSKGGYFSVNL [C3orf33_Y164] | 0.418 | 0.972 | 0.483 | 0.599 | 0.682 | 0.485 | 0.672 | 0.428 | 0.875 | 1.08 | 0.44 | 0.556 | 0.423 | 1.07 | 2.06 | 0.872
30 | VTDGKYAFKPK [GTF2E2_Y137_I133T] | 0.361 | 0.64 | 0.459 | 0.419 | 0.575 | 0.355 | 0.262 | 0.411 | 0.491 | 0.521 | 0.361 | 0.299 | 0.31 | 0.847 | 0.452 | 0.783
31 | VVEFGYEFFAK [PPP1CB_Y254_D252Y_YF] | 0.488 | 1.26 | 0.559 | 0.829 | 0.965 | 0.573 | 0.52 | 0.558 | 1.52 | 1.41 | 0.503 | 0.583 | 0.553 | 0.635 | 1.09 | 0.96
32 | VVLEDYLDIKN [CLCNKB_Y138] | 0.464 | 1.2 | 0.434 | 0.608 | 0.576 | 0.534 | 0.671 | 0.668 | 1.02 | 1.07 | 0.421 | 0.499 | 0.391 | 0.786 | 0.497 | 0.747
33 | VVLGSYDRLRV [IFT172_Y260] | 0.341 | 0.75 | 1.11 | 0.582 | 0.452 | 0.404 | 0.451 | 0.45 | 0.584 | 0.546 | 0.405 | 0.442 | 0.45 | 0.863 | 1.17 | 0.724
